# Target: Smog::GFP (Drosophila)
# Test: fluorescence correlation spectroscopy
substance,measurement,value
Smog::GFP (receptor),"estimated fraction of dimers (monomer/dimer model), WT embryos",68%
same,"estimated fraction of dimers (monomer/dimer model), control embryos",79%
same,"estimated fraction of dimers (monomer/dimer model), gprk2 RNAi embryos",100%
same,"estimated fraction of trimers (monomer/trimer model), control embryos",21%
same,"estimated fraction of trimers (monomer/trimer model), gprk2 RNAi embryos",76%

# From article PMC12913813
